Results taken from patent US20240376198A1 (INHIBRX, published 2024).
Numbering of substitutions follows the chain as printed. Names may count otherwise. Read-outs that look alike come from different tables or passages of the source.

What was measured:
IL-2 receptor = IL-2 receptor (human); assay: cell-based or functional assay
cynomolgus NKp46 [1] = target: T1, cynomolgus NKp46 (cynomolgus monkey, UniProt Q95JB9 22-306); assay: flow cytometry, HEK293F cells transfected with cyno NKp46
T1 construct: also called cyno NKp46; cynomolgus monkey NKp46
T1 sequence (Q95JB9 22-306 limits assumed): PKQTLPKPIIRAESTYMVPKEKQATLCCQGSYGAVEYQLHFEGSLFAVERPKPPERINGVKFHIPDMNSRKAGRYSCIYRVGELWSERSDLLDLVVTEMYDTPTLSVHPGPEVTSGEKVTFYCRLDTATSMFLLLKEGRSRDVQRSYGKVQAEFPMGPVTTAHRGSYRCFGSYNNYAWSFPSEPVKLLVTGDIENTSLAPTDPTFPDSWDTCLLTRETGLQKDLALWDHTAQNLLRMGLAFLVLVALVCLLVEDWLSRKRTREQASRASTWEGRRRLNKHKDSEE
Procedure: (§1) Binding of NKp46-binding polypeptides formatted as VHH-Fc fusion proteins was assessed by flow cytometry. An IgG1-Fc lacking a hinge, or a homodimeric Fc (FIG. 1I-1J) was used (the Fc lacking a hinge is annotated as Fc*). HEK293F cells were transiently transfected with a plasmid encoding full-length human NKp46, cynomolgus NKp46, or mouse NKp46, followed by an IRES and GFP. Transfected cells expressing NKp46 and GFP were used to measure binding of the polypeptides. The transfected cells were plated in a 96-well plate at 30,000 cells per well in FACS buffer (PBS, 1% BSA, 0.1% NaN₃, pH 7.4). Untransfected HEK293F cells were used as a NKp46-negative control and plated at 30,000 cells per well in a separate plate. Test polypeptides were then diluted to two times the final concentration of 1000 nM, and a 3-, 4-, or 5-fold, serial dilution was made. A final column was left with only FACS buffer as a secondary-only control. Test article dilutions were added to an equal volume of cells, and assay plates were incubated for 30 minutes at 4° C. After washing twice with 150 μL. of FACS buffer per well, the cells were resuspended in FACS buffer with α-hFc-647 secondary diluted 1:1000-2000. Assay plates were then left to incubate at 4° C. for 20-30 minutes. After one additional wash with 150 μL of FACS buffer, bound antibody was detected by flow cytometry. Flow cytometric detection was performed on an Intellicyt iQue Plus or Accuri iQue. NKp46 transfected cells were gated on as GFP positive, and polypeptide binding was measured as median fluorescence at 647 nm.

mouse NKp46 [2] = target: T2, mouse NKp46 (mouse, UniProt Q8C567 17-325); assay: flow cytometry, HEK293F cells transfected with mouse NKp46
T2 construct: whole, on cells
T2 sequence (looked up): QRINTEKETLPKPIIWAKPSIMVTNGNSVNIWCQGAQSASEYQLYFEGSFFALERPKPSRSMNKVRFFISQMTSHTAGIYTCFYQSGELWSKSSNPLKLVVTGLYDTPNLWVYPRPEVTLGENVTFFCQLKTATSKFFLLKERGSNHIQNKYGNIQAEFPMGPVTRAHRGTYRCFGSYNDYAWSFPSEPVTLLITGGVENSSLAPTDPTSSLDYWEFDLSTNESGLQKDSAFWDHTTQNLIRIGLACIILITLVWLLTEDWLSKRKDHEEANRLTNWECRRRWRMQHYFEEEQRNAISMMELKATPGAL
Procedure: as §1

human NKp46 [3] = target: T3, human NKp46 (human, UniProt O76036 22-304); assay: flow cytometry, HEK293F cells transfected with human NKp46; Table 3 experiment; HEK-293 transfected with human NKp46
T3 construct: also called CD335; NCR1
T3 sequence (O76036 22-304 Q82K): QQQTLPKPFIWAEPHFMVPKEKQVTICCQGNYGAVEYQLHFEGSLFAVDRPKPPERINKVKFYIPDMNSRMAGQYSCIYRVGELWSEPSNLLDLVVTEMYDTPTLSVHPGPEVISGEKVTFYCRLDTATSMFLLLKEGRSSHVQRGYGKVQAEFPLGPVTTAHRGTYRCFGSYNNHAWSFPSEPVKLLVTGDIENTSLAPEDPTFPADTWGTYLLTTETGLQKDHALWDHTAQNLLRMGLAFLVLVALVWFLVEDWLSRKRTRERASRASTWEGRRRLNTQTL
Procedure: as §1, with “After washing twice with 150 μL. of FACS buffer per well, the cells were resuspended in FACS buffer with α-hFc-647 secondary diluted 1:1000-2000. Assay plates were then left to incubate at 4° C. for 20-30 minutes.” left out, “Flow cytometric detection was performed on an Intellicyt iQue Plus or Accuri iQue.” left out

mouse NKp46 [4] = target: T2, mouse NKp46; assay: flow cytometry, HEK293F cells transfected with mouse NKp46; remark: listed apart in the source
Procedure: as §1

human NKp46 [5] = target: T3, human NKp46; assay: flow cytometry, HEK293F cells transfected with human NKp46
Procedure: as §1

cynomolgus NKp46 [6] = target: T1, cynomolgus NKp46; assay: flow cytometry, HEK293F cells transfected with cyno NKp46; remark: listed apart in the source
Procedure: as §1

human NKp46 [7] = target: T3, human NKp46; assay: flow cytometry, HEK293F cells transfected with human NKp46; remark: listed apart in the source
Procedure: as §1

mouse NKp46 [8] = target: T2, mouse NKp46; assay: flow cytometry on HEK-293F cells transfected with full-length mouse NKp46, anti-hFc-647 secondary
Procedure: as §1, with “After washing twice with 150 μL. of FACS buffer per well, the cells were resuspended in FACS buffer with α-hFc-647 secondary diluted 1:1000-2000. Assay plates were then left to incubate at 4° C. for 20-30 minutes.” left out, “Flow cytometric detection was performed on an Intellicyt iQue Plus or Accuri iQue.” left out

human NKp46 [9] = target: T3, human NKp46; assay: flow cytometry on HEK-293F cells transfected with full-length human NKp46, bivalent VHH with homodimeric Fc, anti-hFc-647 secondary
Procedure: as §1, with “After washing twice with 150 μL. of FACS buffer per well, the cells were resuspended in FACS buffer with α-hFc-647 secondary diluted 1:1000-2000. Assay plates were then left to incubate at 4° C. for 20-30 minutes.” left out, “Flow cytometric detection was performed on an Intellicyt iQue Plus or Accuri iQue.” left out

B1: hz5D7v12-Fc xELL-Hole; and hz5D7v12-Fc xELL-Knob-IL2-T3A-H16A-E61R-P65R-D84Y-C125S (cx10454) (Fc fusion)
chain 1: EVQLVESGGGEVQPGGSLRLSCAASGRTFASAAMGWFRQAPGKEREFVAAISRSDDTYYAESVKGRFTISRDNAKNTVYLQMSSLRAEDTAVYYCAAVVPTYGSNIYVHSAAYNYWGQGTLVTVKPGGGGDKTHTCPPCPAPGGPSVFLFPPKPKDTLMISRTPEVTCVVVDVSHEDPEVKFNWYVDGVEVHNAKTKPREEQYNSTYRVVSVLTVLHQDWLNGKEYKCKVSNKALPAPIEKTISKAKGQPREPQVYTLPPCRDELTKNQVSLWCLVKGFYPSDIAVEWESNGQPENNYKTTPPVLDSDGSFFLYSKLTVDKSRWQQGNVFSCSVMHEALHNHYTQKSLSLSPGGSGGSAPASSSTKKTQLQLEALLLDLQMILNGINNYKNPKLTRMLTFKFYMPKKATELKHLQCLERELKRLEEVLNLAQSKNFHLRPRYLISNINVIVLELKGSETTFMCEYADETATIVEFLNRWITFSQSIISTLT
chain 2: EVQLVESGGGEVQPGGSLRLSCAASGRTFASAAMGWFRQAPGKEREFVAAISRSDDTYYAESVKGRFTISRDNAKNTVYLQMSSLRAEDTAVYYCAAVVPTYGSNIYVHSAAYNYWGQGTLVTVKPGGGGDKTHTCPPCPAPGGPSVFLFPPKPKDTLMISRTPEVTCVVVDVSHEDPEVKFNWYVDGVEVHNAKTKPREEQYNSTYRVVSVLTVLHQDWLNGKEYKCKVSNKALPAPIEKTISKAKGQPREPQVCTLPPSRDELTKNQVSLSCAVKGFYPSDIAVEWESNGQPENNYKTTPPVLDSDGSFFLVSKLTVDKSRWQQGNVFSCSVMHEALHNRYTQKSLSLSPG
B1 was tested, and the “pSTAT5 EC50 on CD56brightCD16- NK cells” value (IL-2 receptor) was < 0.08 nM and the “pSTAT5 EC50 on CD56dimCD16+ NK cells and total NK cells” value (IL-2 receptor) was < 0.4 nM.

B2: hz5D7v17-Fc xELL-Hole; and hz5D7v17-Fc xELL-Knob-IL2-T3A-H16A-E61R-P65R-D84Y-C125S (cx11314) (Fc fusion)
chain 1: B1 chain 1 with K125R
chain 2: EVQLVESGGGEVQPGGSLRLSCAASGRTFASAAMGWFRQAPGKEREFVAAISRSDDTYYAESVKGRFTISRDNAKNTVYLQMSSLRAEDTAVYYCAAVVPTYGSNIYVHSAAYNYWGQGTLVTVRPGGGGDKTHTCPPCPAPGGPSVFLFPPKPKDTLMISRTPEVTCVVVDVSHEDPEVKFNWYVDGVEVHNAKTKPREEQYNSTYRVVSVLTVLHQDWLNGKEYKCKVSNKALPAPIEKTISKAKGQPREPQVCTLPPSRDELTKNQVSLSCAVKGFYPSDIAVEWESNGQPENNYKTTPPVLDSDGSFFLVSKLTVDKSRWQQGNVFSCSVMHEALHNRYTQKSLSLSPGK
B2 was tested, and the “pSTAT5 EC50 on CD56brightCD16- NK cells” value (IL-2 receptor) was < 0.08 nM and the “pSTAT5 EC50 on CD56dimCD16+ NK cells and total NK cells” value (IL-2 receptor) was < 0.4 nM.

B3: NKp46-hz5D7v3-Fc* (Fc fusion)
chain: EVQLVESGGGEVQPGGSLRLSCAASGRTFASAAMGWFRQAPGKEREFVAAISRSDDTYYAESVKGRFTISRDNAKNTVYLQMSSLRAEDTAVYYCAAVVPTYGNNIYVHSAAYNYWGQGTLVTVKPGGGGPSVFLFPPKPKDTLMISRTPEVTCVVVDVSHEDPEVKFNWYVDGVEVHNAKTKPREEQYNSTYRVVSVLTVLHQDWLNGKEYKCKVSNKALPAPIEKTISKAKGQPREPQVYTLPPSRDELTKNQVSLTCLVKGFYPSDIAVEWESNGQPENNYKTTPPVLDSDGSFFLYSKLTVDKSRWQQGNVFSCSVMHEALHNHYTQKSLSLSPG
notes: VHH-Fc fusion with an IgG1 Fc lacking a hinge (Fc*); also called NKp46-bz5D7v3-Fc*
In the case of B3, the “Bmax (MFI)” value (cynomolgus NKp46 [1]) is reported as 19800 MFI, the Kd (cynomolgus NKp46 [1]) is reported as 0.773 nM and the “Bmax (MFI)” value (mouse NKp46 [2]) is reported as 56500 MFI. The Kd (mouse NKp46 [2]) was 0.313 nM, the Kd (human NKp46 [3]) was 0.511 nM and the “Bmax (MFI)” value (mouse NKp46 [4]) was 1.17e+06 MFI. For the same binder, the Kd (mouse NKp46 [4]) was 0.685 nM, the “Bmax (MFI)” value (human NKp46 [5]) was 1.27e+06 MFI and the “Bmax (MFI)” value (cynomolgus NKp46 [6]) was 51800 MFI. For the same binder, the Kd (cynomolgus NKp46 [6]) was 0.726 nM, the “Bmax (MFI)” value (human NKp46 [7]) was 149000 MFI and the Kd (human NKp46 [7]) was 0.177 nM.

B4: NKp46-hz5D7v15-Fc* (Fc fusion)
chain: B3 chain with N105A
notes: VHH-Fc fusion with an IgG1 Fc lacking a hinge (Fc*)
B4 was tested, and the “Bmax (MFI)” value (cynomolgus NKp46 [1]) was 16400 MFI, the Kd (cynomolgus NKp46 [1]) was 0.428 nM and the “Bmax (MFI)” value (mouse NKp46 [2]) was 34300 MFI. For the same binder, the Kd (mouse NKp46 [2]) was 0.729 nM, the “Bmax (MFI)” value (human NKp46 [7]) was 143000 MFI and the Kd (human NKp46 [7]) was 0.237 nM.

B5: NKp46-hz5D7v11-Fc* (Fc fusion)
chain: B3 chain with E61D, N104S, H109Y
notes: as for B4
In the case of B5, the “EC50 (read off the curve)” value (mouse NKp46 [8]) is reported as ~2 nM, the “Bmax (MFI)” value (mouse NKp46 [4]) is reported as 723000 MFI and the Kd (mouse NKp46 [4]) is reported as 1.7 nM. The “Bmax (MFI)” value (human NKp46 [5]) was 1.05e+06 MFI, the Kd (human NKp46 [5]) was 0.189 nM and the “Bmax (MFI)” value (cynomolgus NKp46 [6]) was 52300 MFI. For the same binder, the Kd (cynomolgus NKp46 [6]) was 1.84 nM.

B6: NKp46-hz5D7v14-Fc* (Fc fusion)
chain: B3 chain with N104S, N105S
notes: as for B4
With B6 the “Bmax (MFI)” value (cynomolgus NKp46 [1]) was 14300 MFI, the Kd (cynomolgus NKp46 [1]) was 0.252 nM and the “EC50 (read off the curve)” value (mouse NKp46 [8]) was ~8 nM. For the same binder, the “Bmax (MFI)” value (mouse NKp46 [2]) was 11300 MFI, the Kd (mouse NKp46 [2]) was 6.51 nM and the “Bmax (MFI)” value (human NKp46 [7]) was 138000 MFI. The Kd (human NKp46 [7]) was 0.158 nM.

B7: NKp46-hz5D7v17-Fc (Fc fusion)
chain: EVQLVESGGGEVQPGGSLRLSCAASGRTFASAAMGWFRQAPGKEREFVAAISRSDDTYYAESVKGRFTISRDNAKNTVYLQMSSLRAEDTAVYYCAAVVPTYGSNIYVHSAAYNYWGQGTLVTVRPDKTHTCPPCPAPGGPSVFLFPPKPKDTLMISRTPEVTCVVVDVSHEDPEVKFNWYVDGVEVHNAKTKPREEQYNSTYRVVSVLTVLHQDWLNGKEYKCKVSNKALPAPIEKTISKAKGQPREPQVYTLPPSRDELTKNQVSLTCLVKGFYPSDIAVEWESNGQPENNYKTTPPVLDSDGSFFLYSKLTVDKSRWQQGNVFSCSVMHEALHNHYTQKSLSLSPG
With B7 the “EC50 (read off the curve)” value (human NKp46 [9]) was ~0.3 nM and the Kd (human NKp46 [5]) was 0.295 nM.
